Test [1] concerns the target HA of H1N1 influenza strain PR8 (A/Puerto Rico/8/34) (influenza virus A/Puerto Rico/8/34 …, UniProt P03452 18-565). Description: cell-based or functional assay.
The target of test [2] is HA polypeptide of subtype H3 (Example 1 ELISA) (influenza virus, strain ). Description: ELISA on HA-coated plate, KD from a fit of fractional saturation (Example 2). (In general: An ELISA detects its analyte on a solid surface through an enzyme-linked reagent.)
In test [3] the target is HA polypeptide of subtype H1 (Example 1 ELISA) (influenza virus, strain ). The test is described as above.
In test [4] the target is T1, BSA (Bos taurus, UniProt P02769).
T1 construct: also called 1% BSA
T1 sequence (P02769 25-607 limits assumed): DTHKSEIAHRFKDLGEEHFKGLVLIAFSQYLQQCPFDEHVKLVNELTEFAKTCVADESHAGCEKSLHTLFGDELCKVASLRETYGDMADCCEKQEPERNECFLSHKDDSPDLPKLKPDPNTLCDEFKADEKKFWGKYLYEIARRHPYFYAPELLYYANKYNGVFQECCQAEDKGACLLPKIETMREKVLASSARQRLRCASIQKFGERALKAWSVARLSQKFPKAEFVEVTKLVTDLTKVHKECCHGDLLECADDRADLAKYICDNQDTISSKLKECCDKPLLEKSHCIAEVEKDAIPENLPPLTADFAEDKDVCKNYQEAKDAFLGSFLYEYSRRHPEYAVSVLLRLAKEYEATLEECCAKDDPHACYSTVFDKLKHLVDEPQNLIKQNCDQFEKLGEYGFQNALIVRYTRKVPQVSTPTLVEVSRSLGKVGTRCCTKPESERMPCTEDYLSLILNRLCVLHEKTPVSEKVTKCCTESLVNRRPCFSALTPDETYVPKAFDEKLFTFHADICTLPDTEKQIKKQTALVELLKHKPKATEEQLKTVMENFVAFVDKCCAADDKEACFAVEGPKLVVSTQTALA
The experiment in a line: ELISA, KD table (Example 2).

Test [5] has as its target biotinylated H1 (A/Solomon Islands/03/06) HA polypeptide (influenza virus A/Solomon Islands/03/06).

We go through one molecule from US20130302348A1 (MIT, published 2013).

B1: exemplary antibody (VH-1 combined with VL-1; Table 4) (antibody, V domains shown)
VH: EVQLLESGGGLVKPGQSLKLSCAASGFTFTSYGMHWVRQPPGKGLEWVAVISYDGSYKYYADSVQGRFTISRDNSKNTLYLQMNSLRAEDTAVYYCAKDSELRSLLYFEWLSQGYFNPWGAGTTLTVSS
VL: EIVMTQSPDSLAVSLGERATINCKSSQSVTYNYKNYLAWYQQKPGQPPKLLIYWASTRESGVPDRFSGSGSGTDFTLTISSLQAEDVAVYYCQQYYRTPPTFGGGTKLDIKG
notes: also called exemplary influenza antibody
By Kd is commonly meant the constant that tells how readily two partners part at equilibrium. The low end stands for higher affinity, the high end for lower affinity. Broadly, the kon is the rate constant with which the complex forms. A low value points to slow association. Take B1: the “IC50, microneutralization assay followed by qPCR of viral yield in MDCK cells” value in test [1] is 0.5 µg/mL. Also, the Kd in test [2] is 37.2 nM; in test [3] it was 0.074 nM. The binding result in test [4] is recorded as “no binding”. Moreover, the kon in test [5] turned out to be 297000 M⁻¹ s⁻¹.
